Earlier results as cited in patent publication US20200069786A1, “COMPOSITION AND PROCESS FOR PREPARING VACCINE” (TREOS BIO ZRT., priority 2018, published 2020).
Where two headings read alike, the source gives them in different places.

Tested on: TSA
[1] = TSA expression rate in BLADDER cancer
[2] = TSA expression rate in Cervical cancer
[3] = TSA expression rate in PROSTATE cancer
[4] = TSA expression rate in MELANOMA

B1: SPAG9 (protein, UniProt O60271 1-1321, looked up)
C-Jun-amino-terminal …: MELEDGVVYQEEPGGSGAVMSERVSGLAGSIYREFERLIGRYDEEVVKELMPLVVAVLENLDSVFAQDQEHQVELELLRDDNEQLITQYEREKALRKHAEEKFIEFEDSQEQEKKDLQTRVESLESQTRQLELKAKNYADQISRLEEREAELKKEYNALHQRHTEMIHNYMEHLERTKLHQLSGSDQLESTAHSRIRKERPISLGIFPLPAGDGLLTPDAQKGGETPGSEQWKFQELSQPRSHTSLKVSNSPEPQKAVEQEDELSDVSQGGSKATTPASTANSDVATIPTDTPLKEENEGFVKVTDAPNKSEISKHIEVQVAQETRNVSTGSAENEEKSEVQAIIESTPELDMDKDLSGYKGSSTPTKGIENKAFDRNTESLFEELSSAGSGLIGDVDEGADLLGMGREVENLILENTQLLETKNALNIVKNDLIAKVDELTCEKDVLQGELEAVKQAKLKLEEKNRELEEELRKARAEAEDARQKAKDDDDSDIPTAQRKRFTRVEMARVLMERNQYKERLMELQEAVRWTEMIRASRENPAMQEKKRSSIWQFFSRLFSSSSNTTKKPEPPVNLKYNAPTSHVTPSVKKRSSTLSQLPGDKSKAFDFLSEETEASLASRREQKREQYRQVKAHVQKEDGRVQAFGWSLPQKYKQVTNGQGENKMKNLPVPVYLRPLDEKDTSMKLWCAVGVNLSGGKTRDGGSVVGASVFYKDVAGLDTEGSKQRSASQSSLDKLDQELKEQQKELKNQEELSSLVWICTSTHSATKVLIIDAVQPGNILDSFTVCNSHVLCIASVPGARETDYPAGEDLSESGQVDKASLCGSMTSNSSAETDSLLGGITVVGCSAEGVTGAATSPSTNGASPVMDKPPEMEAENSEVDENVPTAEEATEATEGNAGSAEDTVDISQTGVYTEHVFTDPLGVQIPEDLSPVYQSSNDSDAYKDQISVLPNEQDLVREEAQKMSSLLPTMWLGAQNGCLYVHSSVAQWRKCLHSIKLKDSILSIVHVKGIVLVALADGTLAIFHRGVDGQWDLSNYHLLDLGRPHHSIRCMTVVHDKVWCGYRNKIYVVQPKAMKIEKSFDAHPRKESQVRQLAWVGDGVWVSIRLDSTLRLYHAHTYQHLQDVDIEPYVSKMLGTGKLGFSFVRITALMVSCNRLWVGTGNGVIISIPLTETNKTSGVPGNRPGSVIRVYGDENSDKVTPGTFIPYCSMAHAQLCFHGHRDAVKFFVAVPGQVISPQSSSSGTDLTGDKAGPSAQEPGSQTPLKSMLVISGGEGYIDFRMGDEGGESELLGEDLPLEPSVTKAERSHLIVWQVMYGNE
TSA Expression Rate (ER) (BRAIN): 60% | TSA Expression Rate (ER) (BREAST): 88% | TSA Expression Rate (ER) (HCC): 52% | TSA Expression Rate (ER) (LUNG): 56% | TSA Expression Rate (ER) (OVARIAN): 90% | TSA Expression Rate (ER) (THYROID): 78% | Expression Rate (ER) % [1]: 81% | Expression Rate (ER) % (TSA expression rate in CRC): 71% | Expression Rate (ER) % [2]: 82% | Expression Rate (ER) % (TSA expression rate in Kidney): 88% | Expression Rate (ER) % (TSA expression rate in LEUKEMIAS): 100%

B2: PIWIL2 (protein, UniProt Q8TC59 1-973, looked up)
Piwi-like protein 2: MDPFRPSFRGQSPIHPSQCQAVRMPGCWPQASKPLDPALGRGAPAGRGHVFGKPEEPSTQRGPAQRESVGLVSMFRGLGIETVSKTPLKREMLPSGRGILGRGLSANLVRKDREELSPTFWDPKVLAAGDSKMAETSVGWSRTLGRGSSDASLLPLGRAAGGISREVDKPPCTFSTPSRGPPQLSSPPALPQSPLHSPDRPLVLTVEHKEKELIVKQGSKGTPQSLGLNLVKIQCHNEAVYQYHVTFSPNVECKSMRFGMLKDHQAVTGNVTAFDGSILYLPVKLQQVLELKSQRKTDSAEISIKIQMTKILEPCSDLCIPFYNVVFRRVMKLLDMKLVGRNFYDPTSAMVLQQHRLQIWPGYAASIRRTDGGLFLLADVSHKVIRNDCVLDVMHAIYQQNKEHFQDECTKLLVGNIVITRYNNRTYRIDDVDWNKTPKDSFTMSDGKEITFLEYYSKNYGITVKEEDQPLLIHRPSERQDNHGMLLKGEILLLPELSFMTGIPEKMKKDFRAMKDLAQQINLSPKQHHSALECLLQRIAKNEAATNELMRWGLRLQKDVHKIEGRVLPMERINLKNTSFITSQELNWVKEVTRDPSILTIPMHFWALFYPKRAMDQARELVNMLEKIAGPIGMRMSPPAWVELKDDRIETYVRTIQSTLGAEGKIQMVVCIIMGPRDDLYGAIKKLCCVQSPVPSQVVNVRTIGQPTRLRSVAQKILLQINCKLGGELWGVDIPLKQLMVIGMDVYHDPSRGMRSVVGFVASINLTLTKWYSRVVFQMPHQEIVDSLKLCLVGSLKKFYEVNHCLPEKIVVYRDGVSDGQLKTVANYEIPQLQKCFEAFENYQPKMVVFVVQKKISTNLYLAAPQNFVTPTPGTVVDHTITSCEWVDFYLLAHHVRQGCGIPTHYVCVLNTANLSPDHMQRLTFKLCHMYWNWPGTIRVPAPCKYAHKLAFLSGHILHHEPAIQLCENLFFL
TSA Expression Rate (ER) (BRAIN): 64% | TSA Expression Rate (ER) (BREAST): 94% | TSA Expression Rate (ER) (LUNG): 66% | TSA Expression Rate (ER) (OVARIAN): 61% | TSA Expression Rate (ER) (THYROID): 88% | Expression Rate (ER) % [1]: 82% | Expression Rate (ER) % (TSA expression rate in CRC): 80% | Expression Rate (ER) % [2]: 100% | Expression Rate (ER) % (TSA expression rate in Kidney): 49% | Expression Rate (ER) % [3]: 100%

B3: gp100 (protein, UniProt P40967 25-661, looked up)
Melanocyte protein PMEL: KVPRNQDWLGVSRQLRTKAWNRQLYPEWTEAQRLDCWRGGQVSLKVSNDGPTLIGANASFSIALNFPGSQKVLPDGQVIWVNNTIINGSQVWGGQPVYPQETDDACIFPDGGPCPSGSWSQKRSFVYVWKTWGQYWQVLGGPVSGLSIGTGRAMLGTHTMEVTVYHRRGSRSYVPLAHSSSAFTITDQVPFSVSVSQLRALDGGNKHFLRNQPLTFALQLHDPSGYLAEADLSYTWDFGDSSGTLISRALVVTHTYLEPGPVTAQVVLQAAIPLTSCGSSPVPGTTDGHRPTAEAPNTTAGQVPTTEVVGTTPGQAPTAEPSGTTSVQVPTTEVISTAPVQMPTAESTGMTPEKVPVSEVMGTTLAEMSTPEATGMTPAEVSIVVLSGTTAAQVTTTEWVETTARELPIPEPEGPDASSIMSTESITGSLGPLLDGTATLRLVKRQVPLDCVLYRYGSFSVTLDIVQGIESAEILQAVPSGEGDAFELTVSCQGGLPKEACMEISSPGCQPPAQRLCQPVLPSPACQLVLHQILKGGSGTYCLNVSLADTNSLAVVSTQLIMPGQEAGLGQVPLIVGILLVLMAVVLASLIYRRRLMKQDFSVPQLPHSSSHWLRLPRIFCSCPIGENSPLLSGQQV
TSA Expression Rate (ER) (BRAIN): 85% | Expression Rate (ER) % [4]: 82%

B4: TYR (protein, UniProt P14679 19-529, looked up)
Tyrosinase: HFPRACVSSKNLMEKECCPPWSGDRSPCGQLSGRGSCQNILLSNAPLGPQFPFTGVDDRESWPSVFYNRTCQCSGNFMGFNCGNCKFGFWGPNCTERRLLVRRNIFDLSAPEKDKFFAYLTLAKHTISSDYVIPIGTYGQMKNGSTPMFNDINIYDLFVWMHYYVSMDALLGGSEIWRDIDFAHEAPAFLPWHRLFLLRWEQEIQKLTGDENFTIPYWDWRDAEKCDICTDEYMGGQHPTNPNLLSPASFFSSWQIVCSRLEEYNSHQSLCNGTPEGPLRRNPGNHDKSRTPRLPSSADVEFCLSLTQYESGSMDKAANFSFRNTLEGFASPLTGIADASQSSMHNALHIYMNGTMSQVQGSANDPIFLLHHAFVDSIFEQWLRRHRPLQEVYPEANAPIGHNRESYMVPFIPLYRNGDFFISSKDLGYDYSYLQDSDPDSFQDYIKSYLEQASRIWSWLLGAAMVGAVLTALLAGLVSLLCRHKRKQLPEEKQPLLMEKEDYHSLYQSHL
TSA Expression Rate (ER) (BRAIN): 91% | TSA Expression Rate (ER) (THYROID): 0% | Expression Rate (ER) % [4]: 87%

B5: ODF4 (protein, UniProt Q2M2E3 1-257, looked up)
Outer dense fiber protein 4: MDAEYSGNEFPRSEGERDQHQRPGKERKSGEAGWGTGELGQDGRLLSSTLSLSSNRSLGQRQNSPLPFQWRITHSFRWMAQVLASELSLVAFILLLVVAFSKKWLDLSRSLFYQRWPVDVSNRIHTSAHVMSMGLLHFYKSRSCSDLENGKVTFIFSTLMLFPINIWIFELERNVSIPIGWSYFIGWLVLILYFTCAILCYFNHKSFWSLILSHPSGAVSCSSSFGSVEESPRAQTITDTPITQEGVLDPEQKDTHV
TSA Expression Rate (ER) (BREAST): 63% | Expression Rate (ER) % [3]: 0%

B6: MAGE-A1l (protein, UniProt P43364 1-429, looked up)
Melanoma-associated antigen 11: METQFRRGGLGCSPASIKRKKKREDSGDFGLQVSTMFSEDDFQSTERAPYGPQLQWSQDLPRVQVFREQANLEDRSPRRTQRITGGEQVLWGPITQIFPTVRPADLTRVIMPLEQRSQHCKPEEGLQAQEEDLGLVGAQALQAEEQEAAFFSSTLNVGTLEELPAAESPSPPQSPQEESFSPTAMDAIFGSLSDEGSGSQEKEGPSTSPDLIDPESFSQDILHDKIIDLVHLLLRKYRVKGLITKAEMLGSVIKNYEDYFPEIFREASVCMQLLFGIDVKEVDPTSHSYVLVTSLNLSYDGIQCNEQSMPKSGLLIIVLGVIFMEGNCIPEEVMWEVLSIMGVYAGREHFLFGEPKRLLTQNWVQEKYLVYRQVPGTDPACYEFLWGPRAHAETSKMKVLEYIANANGRDPTSYPSLYEDALREEGEGV
TSA Expression Rate (ER) (BRAIN): 85%

B7: XAGE-3 (protein, UniProt Q8WTP9 1-111, looked up)
X antigen family member 3: MIWRGRSTYRPRPRRSVPPPELIGPMLEPGDEEPQQEEPPTESRDPAPGQEREEDQGAAETQVPDLEADLQELSQSKTGGECGNGPDDQGKILPKSEQFKMPEGGDRQPQV
TSA Expression Rate (ER) (BRAIN): 60% | Expression Rate (ER) % (TSA expression rate in HEAD and NECK): 12% | Expression Rate (ER) % [4]: 0%

B8: IL13RA2 (protein, UniProt Q14627 27-380, looked up)
Interleukin-13 receptor …: DTEIKVNPPQDFEIVDPGYLGYLYLQWQPPLSLDHFKECTVEYELKYRNIGSETWKTIITKNLHYKDGFDLNKGIEAKIHTLLPWQCTNGSEVQSSWAETTYWISPQGIPETKVQDMDCVYYNWQYLLCSWKPGIGVLLDTNYNLFYWYEGLDHALQCVDYIKADGQNIGCRFPYLEASDYKDFYICVNGSSENKPIRSSYFTFQLQNIVKPLPPVYLTFTRESSCEIKLKWSIPLGPIPARCFDYEIEIREDDTTLVTATVENETYTLKTTNETRQLCFVVRSKVNIYCSDDGIWSEWSDKQCWEGEDLSKKTLLRFWLPFGFILILVIFVTGLLLRKPNTYPKMIPEFFCDT
TSA Expression Rate (ER) (BRAIN): 95% | Expression Rate (ER) % (TSA expression rate in LUNG cancer): 12% | Expression Rate (ER) % (TSA expression rate in PEDIATRIC): 58%

B9: PEPP2 (protein, UniProt Q9BQY4 1-288, looked up)
Rhox homeobox family member 2: MEPPDQCSQYMTSLLSPAVDDEKELQDMNAMVLSLTEEVKEEEEDAQPEPEQGTAAGEKLKSAGAQGGEEKDGGGEEKDGGGAGVPGHLWEGDLEGTSGSDGNVEDSDQSEKEPGQQYSRPQGAVGGLEPGNAQQPNVHAFTPLQLQELERIFQREQFPSEFLRRRLARSMNVTELAVQIWFENRRAKWRRHQRALMARNMLPFMAVGQPVMVTAAEAITAPLFISGMRDDYFWDHSHSSSLCFPMPPFPPPSLPLPLMLLPPMPPAGQAEFGPFPFVIVPSFTFPNV
TSA Expression Rate (ER) (BREAST): 60%
